Assay results taken from the supplement of paper PMC7125110.
± gives the standard error. This sample holds only a part of the variants without activity.

B1: glmS ribozyme (parent)
chain: AUAAAAGCGCCAGAACUACAGAAAUGUAGUUGACGAGGAGGAGGUUUAUCGAAUUUUCGGCGGAUGCCUCCAAA

Variants of: B1
Test: self-cleavage kobs at 2500 uM GlcN6P; higher = faster cleavage; RNA array
Conditions: with glucosamine-6-phosphate
How it was run: (§1)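 Barcoded glmS ribozyme variants on sequenced MiSeq chips were transcribed in situ by E. coli RNA polymerase and tracked through a hybridised Cy3 probe at 37 °C. Glucosamine-6-phosphate (40 μM to 10 mM) in HEPES/KCl/Mg(OAc)2 buffer was flowed in, and tiles were imaged over ~14 h. Signals were normalised to baseline and to non-cleaving reference variants; per-tile medians were fit to one- or two-exponential decays to give kobs. kcat and KM came from weighted Michaelis–Menten fits across concentrations.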

Point of comparison: AUAAAAGCGCCAUAACUACAGAAAUGUAGUUGACGAGGAGGAGGUUUAUCGAAUGUUCGGCGGAUGACUCCAAA [G13U U55G C67A], “self-cleavage kobs at 2500 uM GlcN6P” value 8.05e-05 ± 1.9e-05 s⁻¹. Against it:
- AUAAAAGCGCCAGAACUACAGAAAUGUAGUUGACGAGGAGGAGGUUUAUCCAAUUUUCGGCGAAUGCAUCCAAA [G51C G63A C68A] — lower, < 1e-05 s⁻¹
- AUAAAAGCGCUAGGACUACAGAAAUGUAGUUGACGAGGAGGAAGUUUAUCGAAUUUUCGGCGGAUGCCUCCAAA [C11U A14G G43A] — lower, < 1e-05 s⁻¹
- AUAAAAGCGCCAUAACUACAGAAAUGUAGUUGACGAGGAGGAGGAUUAUCGGAUUUUCGGCGGAUGCCUCCAAA [G13U U45A A52G] — within error, 5.37e-05 ± 2.1e-05 s⁻¹
- AUAAAGGCGCCAGAACUACAGAAAUGUAGUUGACGAGGAGGAGGUUUAUCGCAUUUUCGGCGGAGGCCUCCAAA [A6G A52C U65G] — lower, < 1e-05 s⁻¹
- AUAAAAGCGCCAGAACUACAGAAAUGUAGUCGAGUAGGAGGAGGUUUAUCGAAUUUUCGGCGGAUGCGUCCAAA [U31C C34G G35U C68G] — within error, 0.000147 ± 6.7e-05 s⁻¹
- AUAAAACCGCCAGAACUACAGAAAUGUAUUUCGCGAGGAGGAGGUUUAUCGAAUUUUCGGCGGAUGCCUCCAAA [G7C G29U G32C A33G] — lower, < 1e-05 s⁻¹
- AUAAAAGCGACAGAACUACAGAAAUGUAGUUGACGAGGAGGAGGUUUAUCGAUUUUUCGUCGGAUGCCUCCAAA [C10A A53U G60U] — within error, 8.13e-05 ± 1.6e-05 s⁻¹
- AUAAAAGCGCCAGAACUACAGAAAUGUAGUUGAUGCGGUGGAGGUUUAUCGAAUUUUCGGCGGAUGCCUCCAAA [C34U A36C A39U] — lower, < 1e-05 s⁻¹
- AUAAAAGCGCCAGAACUACAGAAAUGUAGUUGAAGAGGAGGAGGUUUGUCGAAUUUCCGGCGGAUGCCUCCAAA [C34A A48G U57C] — lower, < 1e-05 s⁻¹
- AUAAAAGCGCCAGAAUUACAGAAAUGUAGUUGAAGAGGAGAAGGUUUAUCGAAUUUUCGGCGGAUGCUUCAAAA [C16U C34A G41A C68U C71A] — lower, < 1e-05 s⁻¹
- AUAAAUGCGUCAGAUCUACAGAAAUGUAGUUGACGAGGAGGAGGUUUAUCGAGUUUUCGGCGGAUGCCUCCAAA [A6U C10U A15U A53G] — lower, < 1e-05 s⁻¹
- AUAAAAGCGCCAGAACUACAGAAAUGUAGUUGACGAGGAGGAGGUUUAUGGAAUUUUAGGCGGAUGCGUCCAAA [C50G C58A C68G] — within error, 9.4e-05 ± 1.9e-05 s⁻¹
- AUAAAAGCGCCAGAUCUACAGAAAUGUACUUGACGAGGAUGAGGUUUAUCGAAUUUUCGGCGGAUGCCUCCAAA [A15U G29C G40U] — 2.6-fold lower, 3.13e-05 ± 1.2e-05 s⁻¹
- AUAAAAGCGCCAGAUCUACAGAAAUGUAGUUGACGAGGAGGAGGUUUAUCGAAUGUUCGGCGGAUUCCUCCAAA [A15U U55G G66U] — within error, 7.43e-05 ± 1.6e-05 s⁻¹
- AUAAAAGCGCCAGAACUACAGAAAUGUAGUUGACGGGGAGGAUGUUUAUCGAAUUUUCGGCGGAUGCCUGCAAA [A36G G43U C70G] — lower, < 1e-05 s⁻¹
- AUAAAAGCGCGAGAGCUACAGAAAUGUAGUUGACGAGGCAGAGGUUUAUCGAAUUUUCGGCGGAUGCCUCCAAA [C11G A15G A39C G40A] — lower, < 1e-05 s⁻¹
- AUAAAAGCGCCCGAAUUACAGAAAUGUAGUUGACGAGGAGGAGGUUUAUCGAAUUUACGGCGGAUGCCUCCAAA [A12C C16U U57A] — 1.8-fold lower, 4.57e-05 ± 1.5e-05 s⁻¹
- AUAAAAGCGCCAGAAUUACAGAAAUGUAGUUGACGAGGAGGGGGUUUAUCGAAUUUCCGGCGGAUGCCUCCAAA [C16U A42G U57C] — 2.3-fold higher, 0.000189 ± 6.6e-05 s⁻¹
- AUAAAAGCGCCAGAACUACAGAAAUGUAGUUGACAAGGAGGAGGUUUAUCGUAAUUUCGGUGGAUGGCUCCAAA [G35A A52U U54A C61U C67G] — lower, < 1e-05 s⁻¹
- AUAAAAGCGCCAGAAGUACAGAAAUGUAGUUGACGAGAAGGAGGUUCAUCGAAUUUUCGGCAGAUGCCUCCAAA [C16G G38A U47C G62A] — lower, < 1e-05 s⁻¹
- AUAAAAGCGCCAGAACUACAGAAAUGUAGUCGACGAGGAGGUGGUUUAUCGCAUUUUCGGCGGAUGCCUCAAAA [U31C A42U A52C C71A] — lower, < 1e-05 s⁻¹
- AUAAAAGCGCCAGAGCUACAGAAAUGUAGUUGACGAGGAGGAGGUUUAUCGAAUUUUCUGCGUAUGCCUCCAAA [A15G G59U G63U] — lower, < 1e-05 s⁻¹
- AUAAAAGAGCCAGAAUUACAGAAAUGUAGUUGACGAGGAGGAGGUUUAUCGAAUUAUCGGCGGAUGCCUCCAAA [C8A C16U U56A] — lower, < 1e-05 s⁻¹
- AUAAAAGCGCCAGAACUACAGAAAUGUAGUUCACAAGGAGGUGGUUUAUCGAAUUUUCGGCGGAUGCCUCCAAA [G32C G35A A42U] — lower, < 1e-05 s⁻¹
- AUAAAAGCGCCAGAACUACAGAAAUGUAGUUGAUGAGGAGGAGGUUUAUCGAAUUUUUGACGGAUGCCUCCAAA [C34U C58U G60A] — lower, < 1e-05 s⁻¹
- AUAAAAGUGCCAGAACUACAGAAAUGUAGUUGACGAUGAGGAGGUUUAUCGAAUUUUCGGCGGAUGCCUCCAAA [C8U G37U] — lower, < 1e-05 s⁻¹
- AUAAAGGCCCCAGAACUACAGAAAUGUAGUUGACGAGGAGGAGGUUUAUCGAAUUUUCGGCGCUUGCCUCCAAA [A6G G9C G63C A64U] — lower, < 1e-05 s⁻¹
- AUAAACGCGCCACAACUACAGAAAUGUAGUUGACGAGGAGGAGGCUUAUCGAAUUUUCGGCGGAUGCCUCCAAA [A6C G13C U45C] — lower, < 1e-05 s⁻¹
- AUAAAAGCGCCAGAACUACAGAAAUGUAGUUGAGGAGGAGGACGUGUAUCGAAUUUUCGGCGGAUGCCGCCAAA [C34G G43C U46G U69G] — lower, < 1e-05 s⁻¹
- AUAAAACCGCCAGAACUACAGAAAUGUAGUUGACGAGGAGGAGGUUUUUCGAAUUUUCGGCGGUUGUCUCCAAA [G7C A48U A64U C67U] — lower, < 1e-05 s⁻¹
- AUAAAAGCGCCAGAGCUACAGAAAUGUAGUUGACGAGGAGGAGGUUAAUCGAAUUUUGGGCGGAUGCCUCCAAA [A15G U47A C58G] — 1.7-fold lower, 4.72e-05 ± 1.4e-05 s⁻¹
- AUAAAAGCGCCAGAACUACAGAAAUGUAGUUGACGAGGAGGAGGUUUUUCGAAUUUUCGCAGGAUGCCUCCAAA [A48U G60C C61A] — lower, < 1e-05 s⁻¹
- AUAAAAGCGCCAGAACUACAGAAAUGUAGUUGACGUGGAGGACGUUUAUCGACUUUUCGGCGGAUGCCUCGAAA [A36U G43C A53C C71G] — lower, < 1e-05 s⁻¹

Variants of: B1
Test: self-cleavage kobs at 10000 uM GlcN6P; higher = faster cleavage; RNA array
Conditions: with glucosamine-6-phosphate
How it was run: as §1

Point of comparison: AUAAAAGCGCCAGAACUACAGAAAUGUAGUCGAGUAGGAGGAGGUUUAUCGAAUUUUCGGCGGAUGCGUCCAAA [U31C C34G G35U C68G], “self-cleavage kobs at 10000 uM GlcN6P” value 0.000118 ± 4.1e-05 s⁻¹. Against it:
- AUAAAGGCGCCAGAACUACAGAAAUGUAGUUGACGAGGAGGAGGUUUAUCGCAUUUUCGGCGGAGGCCUCCAAA [A6G A52C U65G] — lower, < 1e-05 s⁻¹
- AUAAAAGCGCCCGAAUUACAGAAAUGUAGUUGACGAGGAGGAGGUUUAUCGAAUUUACGGCGGAUGCCUCCAAA [A12C C16U U57A] — within error, 0.000157 ± 3.4e-05 s⁻¹
- AUAAAAGCGCCAGAAUUACAGAAAUGUAGUUGACGAGGAGGGGGUUUAUCGAAUUUCCGGCGGAUGCCUCCAAA [C16U A42G U57C] — within error, 0.00018 ± 4.1e-05 s⁻¹
